Measurements reported in publication PMC4694137.

Tests used:
[1] = target: AgaR2 (SSU05_0447) protein from Streptococcus suis (Streptococcus suis); assay: cross-linking; purified protein (~5 mg/mL) in 15 uL incubated with EGS cross-linker (0, 2.5, 5, 10, 20 umol/L for AgaR2; 0.1, 0.2, 0.5, 1.0, 2.5, 5, 10, 20 umol/L for AgaR1) for 1 h at room temperature; 12% SDS-PAGE, Coomassie staining
[2] = target: AgaR1 (SSU05_0448) protein from Streptococcus suis (Streptococcus suis); assay: as above

| Substance | stoichiometry N [1] | stoichiometry N [2] |
| --- | --- | --- |
| AgaR2 (SSU05_0447) protein from Streptococcus suis (natural protein) | 2 |  |
| AgaR1 (SSU05_0448) protein from Streptococcus suis (natural protein) |  | 2 |
